Results published in patent publication CN113150127A.

Target: HBV表面抗原蛋白 (HBsAg) (Hepatitis B virus)
Experiment: SPR (Biacore 3000), antibody captured through AHC on a CM5 chip, HBsAg as analyte from 40 nM to 0 nM in 2-fold dilutions

B1: 抗HBsAg单克隆抗体5G7-2 (antibody, V domains shown)
VH: EVQLQQSGPELVKPGASVKIYCKASGYTFTNARSTWVKQSHGKSLEWIGWINFKINNDGSATPFKGKATLTVDKSSSTAYMELRSLTSEDSAVYYCSRAGRFKLMDWGQGTLVTVSA
VL: DIVMTQSPASLAMSLGKRATISCGGCARTPLLWICNGKWYQQKPGQPPKLLIYLASNKFGGVPARFSGSGSGADFTLTIDPVEGDDVALYYCQQDWNTIYTFGGGTKMEIK
Kd: 6.12 nM
